The source of these data is patent publication US20160168251A1 (MorphoSys, published 2016).

Numbering of substitutions follows the chain as printed.

Usually Kd stands for the concentration at which binding is half-saturated. In general, koff refers to the first-order rate constant of dissociation. A low value points to a long-lived complex. By kon is commonly meant the second-order rate constant of association. A low value points to slower complex formation. For orientation: EC50 means the midpoint of the concentration-response curve.

T1: human NPRA on HEK293 cells bound to ANP (human, UniProt P01160 124-151)
T1 sequence: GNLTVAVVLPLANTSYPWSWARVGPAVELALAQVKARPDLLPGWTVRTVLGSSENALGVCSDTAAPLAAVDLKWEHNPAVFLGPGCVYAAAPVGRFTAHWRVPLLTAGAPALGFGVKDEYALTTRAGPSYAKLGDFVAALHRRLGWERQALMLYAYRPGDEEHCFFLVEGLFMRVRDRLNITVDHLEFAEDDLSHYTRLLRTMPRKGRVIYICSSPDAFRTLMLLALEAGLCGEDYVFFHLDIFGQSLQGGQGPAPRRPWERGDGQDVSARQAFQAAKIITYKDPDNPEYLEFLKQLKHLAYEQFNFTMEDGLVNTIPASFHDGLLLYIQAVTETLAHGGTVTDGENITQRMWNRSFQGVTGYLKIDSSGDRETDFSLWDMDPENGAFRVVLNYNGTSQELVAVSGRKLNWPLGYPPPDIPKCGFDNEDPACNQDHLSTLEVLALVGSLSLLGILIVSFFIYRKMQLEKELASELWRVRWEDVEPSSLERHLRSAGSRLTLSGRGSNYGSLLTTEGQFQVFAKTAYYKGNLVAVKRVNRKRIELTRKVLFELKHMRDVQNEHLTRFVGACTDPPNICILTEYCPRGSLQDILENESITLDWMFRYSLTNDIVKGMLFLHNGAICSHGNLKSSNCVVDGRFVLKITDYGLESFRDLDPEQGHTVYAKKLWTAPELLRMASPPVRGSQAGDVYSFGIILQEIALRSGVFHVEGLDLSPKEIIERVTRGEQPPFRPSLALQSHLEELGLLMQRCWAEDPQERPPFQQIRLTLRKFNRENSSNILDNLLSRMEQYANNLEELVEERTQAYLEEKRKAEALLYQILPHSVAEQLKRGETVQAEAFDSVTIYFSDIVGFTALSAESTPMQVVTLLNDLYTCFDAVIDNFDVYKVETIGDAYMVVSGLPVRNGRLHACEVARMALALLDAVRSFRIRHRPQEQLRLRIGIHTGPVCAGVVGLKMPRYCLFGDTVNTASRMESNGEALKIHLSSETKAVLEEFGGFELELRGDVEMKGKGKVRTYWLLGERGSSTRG
T1 sequence (peptide): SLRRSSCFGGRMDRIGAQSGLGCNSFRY

T2: human NPRC on HEK293 cells in the presence of ANP (human, UniProt P17342 27-541; P01160 124-151)
T2 construct: whole, on cells;mature; also called HEK NPRC cells + 100 nM ANP
T2 sequence (looked up): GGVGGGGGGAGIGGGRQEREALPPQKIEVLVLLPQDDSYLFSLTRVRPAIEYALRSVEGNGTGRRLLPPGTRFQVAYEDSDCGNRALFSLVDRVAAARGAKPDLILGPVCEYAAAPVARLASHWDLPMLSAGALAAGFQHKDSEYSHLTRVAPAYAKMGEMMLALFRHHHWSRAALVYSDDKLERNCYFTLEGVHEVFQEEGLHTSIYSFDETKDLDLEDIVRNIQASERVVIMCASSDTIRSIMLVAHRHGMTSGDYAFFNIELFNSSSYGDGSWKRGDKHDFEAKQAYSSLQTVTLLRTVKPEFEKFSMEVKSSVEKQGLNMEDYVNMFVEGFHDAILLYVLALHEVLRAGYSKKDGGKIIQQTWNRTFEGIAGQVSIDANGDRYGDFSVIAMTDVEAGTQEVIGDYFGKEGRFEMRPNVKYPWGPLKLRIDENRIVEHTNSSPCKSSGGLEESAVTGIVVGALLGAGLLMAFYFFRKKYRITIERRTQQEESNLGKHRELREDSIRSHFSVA
T2 sequence (peptide, looked up): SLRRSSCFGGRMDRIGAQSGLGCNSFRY

T3: human NPRC on HEK293 cells in the presence of BNP (human, UniProt P17342 27-541; P16860 103-134)
T3 construct: whole, on cells;mature; also called HEK NPRC cells + 100 nM BNP
T3 sequence (looked up): T2 sequence (looked up)
T3 sequence (peptide, looked up): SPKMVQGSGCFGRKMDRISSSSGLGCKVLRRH

T4: human NPRC on HEK293 cells, without added ligand (human, UniProt P17342 27-541)
T4 construct: whole, on cells; also called HEK NPRC cells; natriuretic peptide receptor C
T4 sequence (looked up): T2 sequence (looked up)

B1: 5502 IgG4_Pro (antibody, V domains shown)
VH: QVQLQQSGPGLVKPSQTLSLTCAISGDSVSSRSASWSWIRQSPGRGLEWLGRIYYRSKWYNDYAVSVKSRITINPDTSKNQFSLQLNSVTPEDTAVYYCARMDVPSFRYFDVWGQGTLVTVSS
VL: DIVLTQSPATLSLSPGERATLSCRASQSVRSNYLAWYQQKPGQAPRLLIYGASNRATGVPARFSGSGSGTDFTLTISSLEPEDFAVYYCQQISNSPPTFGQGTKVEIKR
notes: Human IgG4_Pro
B2: 5591 IgG4_Pro (antibody, V domains shown)
VH: B1 VH with I53T, K58H, N61Y, D62E, V65Q
VL: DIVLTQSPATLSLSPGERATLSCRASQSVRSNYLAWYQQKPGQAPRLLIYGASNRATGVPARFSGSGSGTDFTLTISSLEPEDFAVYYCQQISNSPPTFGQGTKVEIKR
B3: 5592 IgG4_Pro (antibody, V domains shown)
VH: B1 VH with I53T, K58H, N61Y, D62E, V65Q
VL: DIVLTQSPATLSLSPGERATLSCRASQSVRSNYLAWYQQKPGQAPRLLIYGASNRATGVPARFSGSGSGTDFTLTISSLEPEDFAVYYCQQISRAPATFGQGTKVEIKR

The target in the first assay is T1, human NPRA on HEK293 cells bound to ANP. The experiment in a line: cell-based or functional assay.
Take B1: the “fold increase in the potency of ANP (cGMP, HEK NPRA cells, 200 nM IgG4_Pro)” value (shortened to “fold increase in the potency of ANP”) is no more than 10 fold.

Turning to B2, the “fold increase in the potency of ANP” value is no more than 10 fold.

Regarding B3, the “fold increase in the potency of ANP” value was no more than 10 fold.

The target of the next assay is T5, NPRA-Fc fusion protein bound to ANP (human, UniProt P01160 124-151).
T5 construct: mature; Receptor-ligand complex; 'human ANP' is stated for Biacore, plain 'ANP' for ELISA and HXMS; also called NPRA-Fc+ANP
The experiment in a line: SPR (Biacore 3000), NPRA-Fc amine-coupled on CM5, analyte with 100 nM human ANP. Background: Surface plasmon resonance follows binding to a sensor surface in real time, without labels.
As for B1, the Kd came out at 0.172 nM, the off-rate (koff) worked out at 0.000283 s⁻¹ and the association rate constant (kon) was found to be 1.65e+06 M⁻¹ s⁻¹.

Molecule B2 displayed an equilibrium dissociation constant (Kd) of 0.0275 nM, an off-rate (koff) of 0.000107 s⁻¹ and a kon of 3.88e+06 M⁻¹ s⁻¹.

B3 showed a Kd of 0.011 nM, a koff of 0.000106 s⁻¹ and an association rate constant (kon) of 9.59e+06 M⁻¹ s⁻¹.

The next assay addresses T1, human NPRA on HEK293 cells bound to ANP. The experiment in a line: cell-based or functional assay. This is another data set of the same source.
Turning to B1, the “cGMP EC50 (nM), titration of the antibody on HEK NPRA cells with 200 pM ANP” value (“cGMP EC50 (nM), titration” for short) stood at 2.1 nM.

B2: the “cGMP EC50 (nM), titration” value was 0.5 nM.

Take B3: the “cGMP EC50 (nM), titration” value came to 1 nM.

A further assay has the same target. Description: FACS, IgG4_Pro on HEK NPRA cells in the presence of 100 nM ANP. In general terms: A flow cytometer gives signals particle by particle.
Description: (§1) HEK NPRA cells are detached with Accutase (PAA Laboratories GmbH, Cat. No. L11-007, Austria), harvested by centrifugation (900 rpm, 4 minutes) and resuspended in FACS buffer (PBS/3% FCS/0.02% NaN3) to a final concentration of 10⁶ cells/ml. 100 μl of the cell suspension is transferred to each well of a 96 round bottom plate (TC Microwell 96U, Nunc). […] Cells are washed in 150 μl of FACS buffer, pelleted and resuspended in 50 μl of the solution containing the primary antibody comprising a BEL extract of Fabs, a diluted BEL extract or purified antibody diluted in FACS buffer and incubated on ice for 30 min. Cells are washed again in FACS buffer and resuspended in 50 μl of FACS buffer containing the secondary antibody (R-Phycoerythrin-conjugated Affipure F(ab′)₂ Fragment Goat Anti-Human IgG, Dianova) and incubated on ice for 45 min. Cells are washed twice with FACS buffer and resuspended in 200 μl of FACS buffer for analysis in the FACS Array (BD Biosciences).
With B1, the EC50 was 0.68 nM.

Turning to B2, the 50% effective concentration (EC50) was found to be 0.73 nM.

Regarding B3, the EC50 is 0.52 nM.

The next assay concerns the target T2, human NPRC on HEK293 cells in the …. Description: FACS, HEK NPRC cells with 100 nM ANP.
Description: as §1
For the molecule B1, the binding result is on record as “no binding (tested: 20 nM)”.

Regarding B2, the binding result is reported as “no binding (tested: 20 nM)”.

Regarding B3, the binding result is on record as “no binding (tested: 20 nM)”.

The next assay has as its target T6, NPRA-Fc fusion protein bound to urodilatin (human, UniProt P01160 120-151).
T6 construct: Receptor-ligand complex; also called NPRA-Fc in the presence of urodilatin
Description: SPR (Biacore 3000), NPRA-Fc amine-coupled on CM5, IgG with 100 nM human urodilatin.
Consider B1, for which the Kd turned out to be 0.211 nM, the off-rate (koff) was 0.000448 s⁻¹ and the kon came out at 2.12e+06 M⁻¹ s⁻¹.

On to B2, for which the Kd is 0.0928 nM, the off-rate constant (koff) was 0.000238 s⁻¹ and the on-rate constant (kon) was 2.56e+06 M⁻¹ s⁻¹.

In turn, B3 had a Kd of 0.0251 nM, a koff of 9.94e-05 s⁻¹ and an association rate constant (kon) of 3.96e+06 M⁻¹ s⁻¹.

Another assay has as its target T3, human NPRC on HEK293 cells in the …. The experiment in a line: FACS, HEK NPRC cells with 100 nM BNP.
Description: as §1
Turning to B1, the binding result is given as “no binding (tested: 20 nM)”.

For the molecule B2, the binding result is recorded as “no binding (tested: 20 nM)”.

For the molecule B3, the binding result is “no binding (tested: 20 nM)”.

For another assay, the target named is T4, human NPRC on HEK293 cells, without …. Description: FACS, HEK NPRC cells without ligand.
Description: as §1
As for B1, the binding result is reported as “no binding (tested: 20 nM)”.

B2: the binding result was “no binding (tested: 20 nM)”.

With B3, the binding result is reported as “no binding (tested: 20 nM)”.

Another assay addresses T7, NPRA-Fc fusion protein bound to BNP (human, UniProt P16860 103-134).
T7 construct: mature; Receptor-ligand complex; also called NPRA-Fc in the presence of BNP
The experiment in a line: SPR (Biacore 3000), NPRA-Fc amine-coupled on CM5, IgG with 100 nM human BNP.
Description: In another assay, the purified human NPRA-Fc fusion protein construct is used to develop a surface plasmon resonance (BIAcore) assay for determining affinity and kinetic constants for the antibodies. NPRA-Fc in 10 mM sodium acetate buffer, pH 5.5 is immobilized on a CM5 chip in a Biacore 3000 instrument (GE Healthcare, Biacore, Inc.) through amine coupling at a density of 1000 RU. […] The collected association and dissociation data from each experiment is globally fitted with the association (kₐ) and dissociation (kd) rates fit simultaneously.
B1: the Kd was determined as 0.413 nM, the off-rate (koff) turned out to be 0.000563 s⁻¹ and the kon is 1.36e+06 M⁻¹ s⁻¹.

The molecule B2 displayed a Kd of 0.38 nM, a koff of 0.00102 s⁻¹ and a kon of 2.69e+06 M⁻¹ s⁻¹.

Consider B3, for which the dissociation constant (Kd) turned out to be 0.0459 nM, the koff worked out at 0.00034 s⁻¹ and the association rate constant (kon) was found to be 7.42e+06 M⁻¹ s⁻¹.
